Results: patent US20220339270A1 (published 2022)

Target: T1, wild-type tau (441 amino acids; tau441; NP_005901.2) (human, UniProt P10636 1-758)
T1 construct: Unphosphorylated recombinant tau441 used in the wild-type tau ELISA; also called wt tau441; wtTau
Assay: wild-type tau ELISA, 293 cell supernatant

T1 sequence (P10636 other isoform, or with tags, fused parts or gaps limits assumed): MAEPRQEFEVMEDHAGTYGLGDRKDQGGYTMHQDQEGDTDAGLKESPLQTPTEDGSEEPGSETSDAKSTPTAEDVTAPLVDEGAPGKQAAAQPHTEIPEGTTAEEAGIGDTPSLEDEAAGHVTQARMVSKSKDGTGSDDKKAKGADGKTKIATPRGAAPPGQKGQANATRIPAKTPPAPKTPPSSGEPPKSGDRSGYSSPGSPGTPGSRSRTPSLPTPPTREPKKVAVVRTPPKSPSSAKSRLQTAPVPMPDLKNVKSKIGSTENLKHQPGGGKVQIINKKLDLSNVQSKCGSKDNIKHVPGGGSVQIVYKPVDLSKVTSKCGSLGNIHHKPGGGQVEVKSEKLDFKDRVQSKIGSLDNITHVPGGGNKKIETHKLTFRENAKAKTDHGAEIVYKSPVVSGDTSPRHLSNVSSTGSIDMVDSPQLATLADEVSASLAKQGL

Binder	binding result
IPN002 F(ab')2_hIgG3_3hinge expressed from TAU_ITR122 (CBA, hGbin, HF.T2AL) (F(ab')2) VH: EVHLVESGGALVKPGGSLKLSCAASGFSFSKYGMSWVRQTPDKRLEWVATISSSGSRTYYPDSVKGQFTISRDNAKNTLYLQMSSLKSEDTAMYYCSISWDGAMDYWGQGTSVTVSS VL: DVLMTQTPLSLPVSLGDQASISCKSSQSIVHSNGNTYLEWYLQKPGQSPKLLVYKVSNRFSGVPDRFSGSGSGTDFTLKISRVEAEDLGTYYCFQGSLVPWAFGGGTKLEIK	binds
IPN002 scFv-HA expressed from TAU_ITR137 (CAG, HL, G4S) (scFv, also called CAG-IPN002-HL-G4S; H(G4S)L) scFv: EVHLVESGGALVKPGGSLKLSCAASGFSFSKYGMSWVRQTPDKRLEWVATISSSGSRTYYPDSVKGQFTISRDNAKNTLYLQMSSLKSEDTAMYYCSISWDGAMDYWGQGTSVTVSSGGGGSDVLMTQTPLSLPVSLGDQASISCKSSQSIVHSNGNTYLEWYLQKPGQSPKLLVYKVSNRFSGVPDRFSGSGSGTDFTLKISRVEAEDLGTYYCFQGSLVPWAFGGGTKLEIK	binds
IPN002 scFv-HA expressed from TAU_ITR154 (CAG, LH, (G4S)5) (scFv, also called CAG-IPN007-LH-G4S5) scFv: DVLMTQTPLSLPVSLGDQASISCKSSQSIVHSNGNTYLEWYLQKPGQSPKLLVYKVSNRFSGVPDRFSGSGSGTDFTLKISRVEAEDLGTYYCFQGSLVPWAFGGGTKLEIKGGGGSGGGGSGGGGSGGGGSGGGGSEVHLVESGGALVKPGGSLKLSCAASGFSFSKYGMSWVRQTPDKRLEWVATISSSGSRTYYPDSVKGQFTISRDNAKNTLYLQMSSLKSEDTAMYYCSISWDGAMDYWGQGTSVTVSS	binds
IPN002 scFv-HA expressed from TAU_ITR139 (CAG, HL, (G4S)3) (scFv, also called CAG-IPN003-HL-G4S3; H(G4S)3L) scFv: EVHLVESGGALVKPGGSLKLSCAASGFSFSKYGMSWVRQTPDKRLEWVATISSSGSRTYYPDSVKGQFTISRDNAKNTLYLQMSSLKSEDTAMYYCSISWDGAMDYWGQGTSVTVSSGGGGSGGGGSGGGGSDVLMTQTPLSLPVSLGDQASISCKSSQSIVHSNGNTYLEWYLQKPGQSPKLLVYKVSNRFSGVPDRFSGSGSGTDFTLKISRVEAEDLGTYYCFQGSLVPWAFGGGTKLEIK	binds
IPN002 scFv-HA expressed from TAU_ITR140 (CAG, HL, (G4S)4) (scFv, also called CAG-IPN008-HL-G4S4) scFv: EVHLVESGGALVKPGGSLKLSCAASGFSFSKYGMSWVRQTPDKRLEWVATISSSGSRTYYPDSVKGQFTISRDNAKNTLYLQMSSLKSEDTAMYYCSISWDGAMDYWGQGTSVTVSSGGGGSGGGGSGGGGSGGGGSDVLMTQTPLSLPVSLGDQASISCKSSQSIVHSNGNTYLEWYLQKPGQSPKLLVYKVSNRFSGVPDRFSGSGSGTDFTLKISRVEAEDLGTYYCFQGSLVPWAFGGGTKLEIK	binds
IPN002 scFv-HA expressed from TAU_ITR143 (CAG, HL, (G4S)8) (scFv, also called CAG-IPN0012-HL-G4S8) scFv: EVHLVESGGALVKPGGSLKLSCAASGFSFSKYGMSWVRQTPDKRLEWVATISSSGSRTYYPDSVKGQFTISRDNAKNTLYLQMSSLKSEDTAMYYCSISWDGAMDYWGQGTSVTVSSGGGGSGGGGSGGGGSGGGGSGGGGSGGGGSGGGGSGGGGSDVLMTQTPLSLPVSLGDQASISCKSSQSIVHSNGNTYLEWYLQKPGQSPKLLVYKVSNRFSGVPDRFSGSGSGTDFTLKISRVEAEDLGTYYCFQGSLVPWAFGGGTKLEIK	binds
IPN002 scFv-HA expressed from TAU_ITR155 (CAG, LH, (G4S)6) (scFv, also called CAG-IPN0014-LH-G4S6) scFv: DVLMTQTPLSLPVSLGDQASISCKSSQSIVHSNGNTYLEWYLQKPGQSPKLLVYKVSNRFSGVPDRFSGSGSGTDFTLKISRVEAEDLGTYYCFQGSLVPWAFGGGTKLEIKGGGGSGGGGSGGGGSGGGGSGGGGSGGGGSEVHLVESGGALVKPGGSLKLSCAASGFSFSKYGMSWVRQTPDKRLEWVATISSSGSRTYYPDSVKGQFTISRDNAKNTLYLQMSSLKSEDTAMYYCSISWDGAMDYWGQGTSVTVSS	binds
IPN002 scFv-HA expressed from TAU_ITR153 (CAG, LH, (G4S)4) (scFv, also called CAG-IPN006-LH-G4S4) scFv: DVLMTQTPLSLPVSLGDQASISCKSSQSIVHSNGNTYLEWYLQKPGQSPKLLVYKVSNRFSGVPDRFSGSGSGTDFTLKISRVEAEDLGTYYCFQGSLVPWAFGGGTKLEIKGGGGSGGGGSGGGGSGGGGSEVHLVESGGALVKPGGSLKLSCAASGFSFSKYGMSWVRQTPDKRLEWVATISSSGSRTYYPDSVKGQFTISRDNAKNTLYLQMSSLKSEDTAMYYCSISWDGAMDYWGQGTSVTVSS	binds
IPN002 scFv-HA expressed from TAU_ITR141 (CAG, HL, (G4S)5) (scFv, also called CAG-IPN0010-HL-G4S5) scFv: EVHLVESGGALVKPGGSLKLSCAASGFSFSKYGMSWVRQTPDKRLEWVATISSSGSRTYYPDSVKGQFTISRDNAKNTLYLQMSSLKSEDTAMYYCSISWDGAMDYWGQGTSVTVSSGGGGSGGGGSGGGGSGGGGSGGGGSDVLMTQTPLSLPVSLGDQASISCKSSQSIVHSNGNTYLEWYLQKPGQSPKLLVYKVSNRFSGVPDRFSGSGSGTDFTLKISRVEAEDLGTYYCFQGSLVPWAFGGGTKLEIK	binds
IPN002 scFv-HA expressed from TAU_ITR150 (CAG, LH, G4S) (scFv, also called CAG-IPN004-LH-G4S; L(G4S)H) scFv: DVLMTQTPLSLPVSLGDQASISCKSSQSIVHSNGNTYLEWYLQKPGQSPKLLVYKVSNRFSGVPDRFSGSGSGTDFTLKISRVEAEDLGTYYCFQGSLVPWAFGGGTKLEIKGGGGSEVHLVESGGALVKPGGSLKLSCAASGFSFSKYGMSWVRQTPDKRLEWVATISSSGSRTYYPDSVKGQFTISRDNAKNTLYLQMSSLKSEDTAMYYCSISWDGAMDYWGQGTSVTVSS	binds
IPN002 scFv-HA expressed from TAU_ITR142 (CAG, HL, (G4S)6) (scFv, also called CAG-IPN0011-HL-G4S6) scFv: EVHLVESGGALVKPGGSLKLSCAASGFSFSKYGMSWVRQTPDKRLEWVATISSSGSRTYYPDSVKGQFTISRDNAKNTLYLQMSSLKSEDTAMYYCSISWDGAMDYWGQGTSVTVSSGGGGSGGGGSGGGGSGGGGSGGGGSGGGGSDVLMTQTPLSLPVSLGDQASISCKSSQSIVHSNGNTYLEWYLQKPGQSPKLLVYKVSNRFSGVPDRFSGSGSGTDFTLKISRVEAEDLGTYYCFQGSLVPWAFGGGTKLEIK	binds
IPN002 scFv-HA expressed from TAU_ITR152 (CAG, LH, (G4S)3) (scFv, also called CAG-IPN005-LH-G4S3; L(G4S)3H) scFv: DVLMTQTPLSLPVSLGDQASISCKSSQSIVHSNGNTYLEWYLQKPGQSPKLLVYKVSNRFSGVPDRFSGSGSGTDFTLKISRVEAEDLGTYYCFQGSLVPWAFGGGTKLEIKGGGGSGGGGSGGGGSEVHLVESGGALVKPGGSLKLSCAASGFSFSKYGMSWVRQTPDKRLEWVATISSSGSRTYYPDSVKGQFTISRDNAKNTLYLQMSSLKSEDTAMYYCSISWDGAMDYWGQGTSVTVSS	binds
IPN002 scFv-HA expressed from TAU_ITR151 (CAG, LH, (G4S)2) (scFv, also called CAG-IPN004-LH-G4S2) scFv: DVLMTQTPLSLPVSLGDQASISCKSSQSIVHSNGNTYLEWYLQKPGQSPKLLVYKVSNRFSGVPDRFSGSGSGTDFTLKISRVEAEDLGTYYCFQGSLVPWAFGGGTKLEIKGGGGSGGGGSEVHLVESGGALVKPGGSLKLSCAASGFSFSKYGMSWVRQTPDKRLEWVATISSSGSRTYYPDSVKGQFTISRDNAKNTLYLQMSSLKSEDTAMYYCSISWDGAMDYWGQGTSVTVSS	binds
